Results from PMC10196804 (The Journal of Biological Chemistry, 2023).

T1: His-HERC2 (amino acids 2540–2700) (human, UniProt O95714 2540-2700)
T1 construct: source: E. coli BL21-CodonPlus (DE3)-RIPL, purified (nickel–nitrilotriacetic acid beads, PD-10 desalting)
T1 sequence (looked up): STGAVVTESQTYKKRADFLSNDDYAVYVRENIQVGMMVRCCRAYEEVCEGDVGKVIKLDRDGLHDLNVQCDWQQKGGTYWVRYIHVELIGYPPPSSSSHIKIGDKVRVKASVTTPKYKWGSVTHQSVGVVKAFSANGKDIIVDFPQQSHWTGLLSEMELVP


Molecular target: T1, His-HERC2 (amino acids 2540–2700)
Experiment: pull-down; GST-tagged proteins (2 μg) and His-HERC2 (amino acids 2540–2700) (2.8 μg) in 20 mM Tris–HCl pH 7.5, 150 mM NaCl, 0.1% Triton X-100, 1 mM DTT; Glutathione Sepharose beads, 1 h at 4 °C; gel stained with CBB
Conditions: both partners purified

binding result	Binder
binds	GST-NCOA4 (amino acids 383–522) C418S (domain or fragment, human, UniProt Q13772 383-522, looked up, C418S; Absorption at 330 and 420 nm not attenuated (Fe–S cluster kept); source: E. coli BL21-CodonPlus (DE3)-RIPL, purified (Glutathione Sepharose, PD-10 desalting)) SMVTEDWLVQNHQDPCKVEEVCRANEPCTSFAECVSDENCEKEALYKWLLKKEGKDKNGMPVEPKPEPEKHKDSLNMWLCPRKEVIEQTKAPKAMTPSRIADSFQVIKNSPLSEWLIRPPYKEGSPKEVPGTEDRAGKQK
binds	GST-NCOA4 (amino acids 383–522) WT (domain or fragment, human, UniProt Q13772 383-522, looked up, Vector pGEX6p-1; Bacteria were grown with Cys and FAC; the UV–visible spectrum resembles that of 2Fe–2S cluster proteins; also called glutathione S-transferase (GST)-fused NCOA4 (amino acids 383–522); source: E. coli BL21-CodonPlus (DE3)-RIPL, purified (Glutathione Sepharose, PD-10 desalting)) SMVTEDWLVQNHQDPCKVEEVCRANEPCTSFAECVCDENCEKEALYKWLLKKEGKDKNGMPVEPKPEPEKHKDSLNMWLCPRKEVIEQTKAPKAMTPSRIADSFQVIKNSPLSEWLIRPPYKEGSPKEVPGTEDRAGKQK
